Values quoted from earlier work, collected in article PMC4776130.
Read-outs that look alike come from different tables or passages of the source.

What was measured:
Asp95 = Asp95 (UniProt position 177, AYIYADGKMVN); settings: folded SNase Delta+PHS
Glu135 = Glu135 (UniProt position 217, AQAKKEKLNIW); settings: folded SNase Delta+PHS
Glu10 = Glu10 (UniProt position 92, KKLHKEPATLI); settings: folded SNase Delta+PHS
Glu43 = Glu43 (UniProt position 125, LVDTPETKHPK); settings: folded SNase Delta+PHS
Glu67 = Glu67 (UniProt position 149, TKKMVENAKKI); settings: folded SNase Delta+PHS
Glu122 = Glu122 (UniProt position 204, GNNTHEQLLRK); settings: folded SNase Delta+PHS
Asp21 = Asp21 (UniProt position 103, KAIDGDTVKLM); settings: folded SNase Delta+PHS
Glu73 = Glu73 (UniProt position 155, NAKKIEVEFDK); settings: folded SNase Delta+PHS
Glu75 = Glu75 (UniProt position 157, KKIEVEFDKGQ); settings: folded SNase Delta+PHS
Asp77 = Asp77 (UniProt position 159, IEVEFDKGQRT); settings: folded SNase Delta+PHS
Asp19 = Asp19 (UniProt position 101, LIKAIDGDTVK); settings: folded SNase Delta+PHS
Glu101 = Glu101 (UniProt position 183, GKMVNEALVRQ); settings: folded SNase Delta+PHS
Asp40 = Asp40 (UniProt position 122, RLLLVDTPETK); settings: folded SNase Delta+PHS
Asp83 [1] = molecular target: Asp83 (UniProt position 165, KGQRTDKYGRG); settings: folded SNase Delta+PHS
His8 = His8 (UniProt position 90, STKKLHKEPAT)
Glu52 = Glu52 (UniProt position 134, PKKFNEKYGPE); settings: folded SNase Delta+PHS
Glu57 = Glu57 (UniProt position 139, EKYGPEASAFT); settings: folded SNase Delta+PHS
Glu129 = Glu129 (UniProt position 211, LLRKAEAQAKK); settings: folded SNase Delta+PHS
His121 = His121 (UniProt position 203, KGNNTHEQLLR)
His15 [2] = molecular target: T1, His15 (UniProt position 33, AAMKRHGLDNY); assay: NMR
His15 [3] = molecular target: T1, His15
Glu46 = Glu46 (UniProt position 67, NKDKPEDAVLD); assay: NMR; settings: HdeA dimer (remains dimeric from pH 6 down to pH 3)
Asp83 [4] = molecular target: Asp83 (UniProt position 104, VKGEWDKIKKD); assay: NMR; settings: HdeA dimer (remains dimeric from pH 6 down to pH 3)
Asp76 = Asp76 (UniProt position 97, QANFKDKVKGE); assay: NMR; settings: HdeA dimer (remains dimeric from pH 6 down to pH 3)
Glu26 = Glu26 (UniProt position 47, FLAVDESFQPT); assay: NMR; settings: HdeA dimer (remains dimeric from pH 6 down to pH 3)
Asp69 = Asp69 (UniProt position 90, QACTQDKQANF); assay: NMR; settings: HdeA dimer (remains dimeric from pH 6 down to pH 3)
Glu81 = Glu81 (UniProt position 102, DKVKGEWDKIK); assay: NMR; settings: HdeA dimer (remains dimeric from pH 6 down to pH 3)
Asp20 = Asp20 (UniProt position 41, SWTCEDFLAVD); assay: NMR; settings: HdeA dimer (remains dimeric from pH 6 down to pH 3)
Asp43 = Asp43 (UniProt position 64, ALNNKDKPEDA); assay: NMR; settings: HdeA dimer (remains dimeric from pH 6 down to pH 3)
Asp51 = Asp51 (UniProt position 72, EDAVLDVQGIA); assay: NMR; settings: HdeA dimer (remains dimeric from pH 6 down to pH 3)
Asp25 = Asp25 (UniProt position 46, DFLAVDESFQP); assay: NMR; settings: HdeA dimer (remains dimeric from pH 6 down to pH 3)
Glu19 = Glu19 (UniProt position 40, NSWTCEDFLAV); assay: NMR; settings: HdeA dimer (remains dimeric from pH 6 down to pH 3)
Asp47 = Asp47 (UniProt position 68, KDKPEDAVLDV); assay: NMR; settings: HdeA dimer (remains dimeric from pH 6 down to pH 3)

Staphylococcal nuclease (SNase), Delta+PHS variant (Staphylococcus aureus; G50F;V51N;P117G;H124L;S128A;del44-49)
pKa (Asp95): 2.16
pKa (Glu135): 3.76
pKa (Glu10): 2.82
pKa (Glu43): 4.32
pKa (Glu67): 3.76
pKa (Glu122): 3.89
pKa (Asp21): 6.54
pKa (Glu73): 3.31
pKa (Glu75): 3.26
pKa (Asp77): <2.2
pKa (Asp19): 2.21
pKa (Glu101): 3.81
pKa (Asp40): 3.87
pKa (Asp83 [1]): <2.2
pKa (His8): 6.50
pKa (Glu52): 3.93
pKa (Glu57): 3.49
pKa (Glu129): 3.75
pKa (His121): 5.25

Hen egg-white lysozyme (HEWL) (Gallus gallus)
pKa (His15 [2]): 5.5 ± 0.2
pKa (His15 [3]): 5.68–5.74

Acid stress chaperone HdeA (Escherichia coli)
pKa (Glu46): 4.07
pKa (Asp83 [4]): 3.97
pKa (Asp76): 3.75
pKa (Glu26): 4.57
pKa (Asp69): 3.74
pKa (Glu81): 4.23
pKa (Asp20): 3.66
pKa (Asp43): 3.87
pKa (Asp51): 3.83
pKa (Asp25): 3.71
pKa (Glu19): 4.38
pKa (Asp47): 4.14
